Changes are numbered by the printed parent chain. In names and notes the source's numbering stands.
B1: Ab1 Fab variant H2 G67P (Fab, V domains shown)
VH: QVQLQESGPGLVKPSQTLSLTCTVSGYAFTAYNIHWVRQAPGQGLEWMGSFDPYDGPSSYNQKFKDRLTISKDTSKNQVVLTMTNMDPVDTATYYCARGWYYFDYWGHGTLVTVSS
VL: DIVMTQTPLSLPVTPGEPASISCRASKSISKYLAWYQQKPGQAPRLLIYSGSTLQSGIPPRFSGSGYGTDFTLTINNIESEDAAYYFCQQHDESPYTFGEGTKVEIK
notes: Fab
B2: Ab1 Fab variant H1 N40R (Fab, V domains shown)
VH: B1 VH with N33R, P57G
VL: B1 VL
B3: Ab1 Fab variant H1 I41V (Fab, V domains shown)
VH: B1 VH with I34V, P57G
VL: B1 VL
B4: Ab1 Fab variant H2 S57A (Fab, V domains shown)
VH: B1 VH with S50A, P57G
VL: B1 VL
B5: Ab1 Fab variant L2 S68G (Fab, V domains shown)
VH: B1 VH with P57G
VL: B1 VL with S52G
notes: Fab; also called SGGTLQS
B6: Ab1 Fab variant L2 T69R (Fab, V domains shown)
VH: B1 VH with P57G
VL: B1 VL with T53R
notes: Fab; also called SGSRLQS
B7: Ab1 Fab variant L2 T69H (Fab, V domains shown)
VH: B1 VH with P57G
VL: B1 VL with T53H
notes: Fab; also called SGSHLQS
B8: Ab1 Fab variant L2 Q71V (Fab, V domains shown)
VH: B1 VH with P57G
VL: B1 VL with Q55V
notes: Fab; also called SGSTLVS
B9: Ab1 Fab variant L1 K29S (Fab, V domains shown)
VH: B1 VH with P57G
VL: B1 VL with K27S
notes: Fab
B10: Ab1 Fab variant L1 S32A (Fab, V domains shown)
VH: B1 VH with P57G
VL: B1 VL with S30A
notes: Fab
B11: Ab1 Fab variant L1 K29E (Fab, V domains shown)
VH: B1 VH with P57G
VL: B1 VL with K27E
notes: Fab
B12: Ab1 Fab variant L1 S30A (Fab, V domains shown)
VH: B1 VH with P57G
VL: B1 VL with S28A
notes: Fab
B13: Ab1 Fab variant L1 S30H (Fab, V domains shown)
VH: B1 VH with P57G
VL: B1 VL with S28H
notes: Fab
B14: Ab1 Fab variant H2 N71H (Fab, V domains shown)
VH: B1 VH with P57G, N61H
VL: B1 VL
notes: Fab
B15: Ab1 Fab variant H2 S69E (Fab, V domains shown)
VH: B1 VH with P57G, S59E
VL: B1 VL
notes: Fab
B16: Ab1 Fab variant L1 S30P (Fab, V domains shown)
VH: B1 VH with P57G
VL: B1 VL with S28P
notes: Fab
B17: Ab1 Fab variant H2 G67Q (Fab, V domains shown)
VH: B1 VH with P57Q
VL: B1 VL
notes: Fab
B18: Ab1 Fab variant H2 Y70I (Fab, V domains shown)
VH: B1 VH with P57G, Y60I
VL: B1 VL
notes: Fab
B19: Ab1 Fab variant L2 Q71T (Fab, V domains shown)
VH: B1 VH with P57G
VL: B1 VL with Q55T
notes: Fab; also called SGSTLTS
B20: Ab1 Fab variant L1 S32I (Fab, V domains shown)
VH: B1 VH with P57G
VL: B1 VL with S30I
notes: Fab
B21: Ab1 Fab variant H2 G67R (Fab, V domains shown)
VH: B1 VH with P57R
VL: B1 VL
notes: Fab
B22: Ab1 Fab variant H2 G67Y (Fab, V domains shown)
VH: B1 VH with P57Y
VL: B1 VL
notes: Fab
B23: Ab1 Fab variant L2 S68R (Fab, V domains shown)
VH: B1 VH with P57G
VL: B1 VL with S52R
notes: Fab; also called SGRTLQS
B24: Ab1 Fab variant L1 L41M (Fab, V domains shown)
VH: B1 VH with P57G
VL: B1 VL with L33M
notes: Fab
B25: Ab1 Fab variant H2 N71S (Fab, V domains shown)
VH: B1 VH with P57G, N61S
VL: B1 VL
notes: Fab
B26: Ab1 Fab variant H2 S69K (Fab, V domains shown)
VH: B1 VH with P57G, S59K
VL: B1 VL
notes: Fab
B27: Ab1 Fab variant H2 S68A (Fab, V domains shown)
VH: B1 VH with P57G, S58A
VL: B1 VL
notes: Fab
B28: Ab1 Fab variant L1 S30F (Fab, V domains shown)
VH: B1 VH with P57G
VL: B1 VL with S28F
notes: Fab
B29: Ab1 Fab variant L1 L41V (Fab, V domains shown)
VH: B1 VH with P57G
VL: B1 VL with L33V
notes: Fab
B30: Ab1 Fab variant L2 L70K (Fab, V domains shown)
VH: B1 VH with P57G
VL: B1 VL with L54K
notes: Fab; also called SGSTKQS
B31: Ab1 Fab variant L1 I31V (Fab, V domains shown)
VH: B1 VH with P57G
VL: B1 VL with I29V
notes: Fab
B32: Ab1 Fab variant L2 L70H (Fab, V domains shown)
VH: B1 VH with P57G
VL: B1 VL with L54H
notes: Fab; also called SGSTHQS
B33: Ab1 Fab variant H2 Y70V (Fab, V domains shown)
VH: B1 VH with P57G, Y60V
VL: B1 VL
notes: Fab
B34: Ab1 Fab variant H2 S68T (Fab, V domains shown)
VH: B1 VH with P57G, S58T
VL: B1 VL
notes: Fab
B35: Ab1 Fab variant H2 S69V (Fab, V domains shown)
VH: B1 VH with P57G, S59V
VL: B1 VL
notes: Fab
B36: Ab1 Fab variant H2 N71A (Fab, V domains shown)
VH: B1 VH with P57G, N61A
VL: B1 VL
notes: Fab
B37: Ab1 Fab variant L1 A25P (Fab, V domains shown)
VH: B1 VH with P57G
VL: B1 VL with A25P
notes: Fab
B38: Ab1 Fab variant H2 N71G (Fab, V domains shown)
VH: B1 VH with P57G, N61G
VL: B1 VL
notes: Fab

Target: T1, recombinant human ROR1 extracellular domain (human, UniProt Q01973 30-406)
T1 construct: biotinylated for the filter lifts; also called huROR1-ECD; human ROR1-ECD
Assay: ELISA, soluble Fab on coated huROR1-ECD
Protocol: The previously described filter lift assay provides a visual, qualitative assessment of antigen binding (Example 1). In order to assess the ROR1 binding activity of Ab1 Fab in a more quantitative fashion, an ELISA assay was developed. A 96-well Costar-3366 plate was coated with 50 μL/well of 1 μg/mL human ROR1-ECD (ACROBiosystems, cat. #RO1-H522y) in PBS overnight at 4° C. The plate was rinsed once with PBS-T and blocked with 100 μL/well of 5% M-P for 1 h at 25° C. Fab samples were serially diluted 3-fold using 5% M-P and 50 μL/well was incubated for 1 h at 25° C. The plate was washed three times with PBS-T and 50 μL/well anti-human kappa, and HRP conjugate (Southern Biotech, cat. #2060-05) diluted 10,000-fold in 5% M-P was added for 1 h at 25° C. In certain assays (extended wash format), the plate was placed in large volumes (up to 1 L) of PBS-T and incubated, with mixing, for 2-5 h prior to the addition of anti-human kappa, HRP conjugate. The plate was washed three times with PBS-T, and developed with 50 μL/well 1-Step Ultra TMB-ELISA (Thermo Scientific, cat. #34028). The reaction was terminated by the addition of 2 N H2504 and the A450 was determined using a Spectramax plate reader.

T1 sequence (Q01973 30-406 limits assumed): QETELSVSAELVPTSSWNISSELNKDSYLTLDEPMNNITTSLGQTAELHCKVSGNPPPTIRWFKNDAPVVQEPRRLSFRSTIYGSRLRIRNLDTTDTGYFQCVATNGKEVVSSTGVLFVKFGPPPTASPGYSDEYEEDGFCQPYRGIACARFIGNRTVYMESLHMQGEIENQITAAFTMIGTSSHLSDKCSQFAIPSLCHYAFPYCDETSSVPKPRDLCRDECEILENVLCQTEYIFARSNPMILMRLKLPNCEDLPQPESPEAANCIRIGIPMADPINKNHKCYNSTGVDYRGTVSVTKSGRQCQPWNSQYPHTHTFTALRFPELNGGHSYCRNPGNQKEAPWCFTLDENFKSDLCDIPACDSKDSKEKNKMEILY

Point of comparison: B12, Kd 1.5 nM. Against it:
- B1 — 2.5-fold lower, 0.6 nM
- B2 — 29-fold higher, 43 nM
- B3 — 2.3-fold higher, 3.5 nM
- B4 — 2.4-fold higher, 3.6 nM
- B5 — within 1.5-fold, 1.6 nM
- B6 — within 1.5-fold, 2.1 nM
- B7 — the same, 1.5 nM
- B8 — within 1.5-fold, 1.3 nM
- B9 — 1.7-fold lower, 0.9 nM
- B10 — within 1.5-fold, 1.1 nM
- B11 — within 1.5-fold, 1.2 nM
- B13 — within 1.5-fold, 1.4 nM
- B14 — within 1.5-fold, 1.1 nM
- B15 — within 1.5-fold, 1.2 nM
- B16 — 11-fold higher, 16 nM
- B17 — lower, < 1 nM
- B18 — within 1.5-fold, 1.7 nM
- B19 — within 1.5-fold, 1.1 nM
- B20 — within 1.5-fold, 1.9 nM
- B21 — within 1.5-fold, 1.7 nM
- B22 — 4.2-fold higher, 6.3 nM
- B23 — 7.3-fold higher, 11 nM
- B24 — within 1.5-fold, 1.3 nM
- B25 — within 1.5-fold, 1.2 nM
- B26 — 31-fold higher, 46 nM
- B27 — within 1.5-fold, 1.2 nM
- B28 — 12-fold higher, 18 nM
- B29 — within 1.5-fold, 1.1 nM
- B30 — the same, 1.5 nM
- B31 — 1.9-fold higher, 2.8 nM
- B32 — 1.5-fold higher, 2.3 nM
- B33 — the same, 1.5 nM
- B34 — 4.3-fold higher, 6.4 nM
- B35 — 1.5-fold lower, 1 nM
- B36 — within 1.5-fold, 1.3 nM
- B37 — 2.1-fold lower, 0.7 nM
- B38 — the same, 1.5 nM
